± gives the standard deviation of the averaged measurements.
Assay: total protein half-life in vivo (active degradation + dilution); higher = more stable protein
[1] = E. coli NCM3722 delta-clpP delta-lon delta-hslV, growth: N-lim chemostat, doubling time 6 h
[2] = E. coli NCM3722 delta-clpP, growth: N-lim chemostat, doubling time 6 h
[3] = E. coli NCM3722 delta-smpB, growth: N-lim chemostat, doubling time 6 h
[4] = wild type E. coli NCM3722, growth: C-lim chemostat, doubling time 3 h
[5] = wild type E. coli NCM3722, growth: C-lim chemostat, doubling time 6 h
[6] = wild type E. coli NCM3722, growth: C-lim chemostat, doubling time 12 h
[7] = wild type E. coli NCM3722, growth: N-lim chemostat, doubling time 6 h
[8] = wild type E. coli NCM3722, growth: P-lim chemostat, doubling time 12 h
[9] = E. coli NCM3722 delta-hslV, growth: N-lim chemostat, doubling time 6 h
[10] = E. coli NCM3722 delta-lon, growth: N-lim chemostat, doubling time 6 h
[11] = wild type E. coli NCM3722, growth: N-lim chemostat, doubling time 12 h
[12] = wild type E. coli NCM3722, growth: P-lim chemostat, doubling time 6 h

Row | Sequence | total protein half-life in vivo [1] [h] | total protein half-life in vivo [2] [h] | total protein half-life in vivo [3] [h] | total protein half-life in vivo [4] [h] | total protein half-life in vivo [5] [h] | total protein half-life in vivo [6] [h] | total protein half-life in vivo [7] [h] | total protein half-life in vivo [8] [h] | total protein half-life in vivo [9] [h] | total protein half-life in vivo [10] [h] | total protein half-life in vivo [11] [h] | total protein half-life in vivo [12] [h]
1 | MSASLAILTIGIVPMQEVLPLLTEYIDEDNISHHSLLGKLSREEVMAEYAPEAGEDTILTLLNDNQLAHVSRRKVERDLQGVVEVLDNQGYDVILLMSTANISSMTARNTIFLEPSRILPPLVSSIVEDHQVGVIVPVEEMLPVQAQKWQILQKSPVFSLGNPIHDSEQKIIDAGKELLAKGADVIMLDCLGFHQRHRDLLQKQLDVPVLLSNVLIARLAAELLV [P0AE28] | 3.97 | 2.28 | 1.41 | 2.32 ± 0.053 | 3.15 ± 0.55 | 3.7 | 1.67 ± 0.018 | 7.89 |  |  |  | 
2 | MSCPVIELTQQLIRRPSLSPDDAGCQALLIERLQAIGFTVERMDFADTQNFWAWRGQGETLAFAGHTDVVPPGDADRWINPPFEPTIRDGMLFGRGAADMKGSLAAMVVAAERFVAQHPNHTGRLAFLITSDEEASAHNGTVKVVEALMARNERLDYCLVGEPSSIEVVGDVVKNGRRGSLTCNLTIHGVQGHVAYPHLADNPVHRAAPFLNELVAIEWDQGNEFFPATSMQIANIQAGTGSNNVIPGELFVQFNFRFSTELTDEMIKAQVLALLEKHQLRYTVDWWLSGQPFLTARGKLVDAVVNAVEHYNEIKPQLLTTGGTSDGRFIARMGAQVVELGPVNATIHKINECVNAADLQLLARMYQRIMEQLVA [P0AED7] | 4.94 ± 0.53 | 4.52 ± 0.093 | 4.4 ± 0.41 | 3.05 ± 0.25 | 5.7 ± 0.46 | 9.7 ± 0.28 | 4.418 ± 0.036 | 11 ± 1.8 | 4.42 ± 0.081 | 5.76 ± 1.5 | 7.37 ± 0.72 | 5.6 ± 0.48
3 | MSDDMSMGLPSSAGEHGVLRSMQEVAMSSQEASKMLRTYNIAWWGNNYYDVNELGHISVCPDPDVPEARVDLAQLVKTREAQGQRLPALFCFPQILQHRLRSINAAFKRARESYGYNGDYFLVYPIKVNQHRRVIESLIHSGEPLGLEAGSKAELMAVLAHAGMTRSVIVCNGYKDREYIRLALIGEKMGHKVYLVIEKMSEIAIVLDEAERLNVVPRLGVRARLASQGSGKWQSSGGEKSKFGLAATQVLQLVETLREAGRLDSLQLLHFHLGSQMANIRDIATGVRESARFYVELHKLGVNIQCFDVGGGLGVDYEGTRSQSDCSVNYGLNEYANNIIWAIGDACEENGLPHPTVITESGRAVTAHHTVLVSNIIGVERNEYTVPTAPAEDAPRALQSMWETWQEMHEPGTRRSLREWLHDSQMDLHDIHIGYSSGIFSLQERAWAEQLYLSMCHEVQKQLDPQNRAHRPIIDELQERMADKMYVNFSLFQSMPDAWGIDQLFPVLPLEGLDQVPERRAVLLDITCDSDGAIDHYIDGDGIATTMPMPEYDPENPPMLGFFMVGAYQEILGNMHNLFGDTEAVDVFVFPDGSVEVELSDEGDTVADMLQYVQLDPKTLLTQFRDQVKKTDLDAELQQQFLEEFEAGLYGYTYLEDE | 4.96 ± 0.56 | 4.38 ± 0.22 | 3.97 ± 0.11 | 2.872 ± 0.017 | 5.43 ± 0.37 | 9.85 ± 0.33 | 3.93 ± 0.19 | 11.5 ± 0.38 | 4.3 ± 0.57 | 4.28 ± 0.16 | 5.91 ± 0.16 | 5.54 ± 0.16
4 | MSDEGLAPGKRLSEIRQQQGLSQRRAAELSGLTHSAISTIEQDKVSPAISTLQKLLKVYGLSLSEFFSEPEKPDEPQVVINQDDLIEMGSQGVSMKLVHNGNPNRTLAMIFETYQPGTTTGERIKHQGEEIGTVLEGEIVLTINGQDYHLVAGQSYAINTGIPHSFSNTSAGICRIISAHTPTTF [P0A9U6] | 5.35 ± 0.67 | 5.41 ± 3.1 | 2.66 ± 0.063 |  | 4.03 ± 0.12 | 5.53 ± 0.11 | 2.7 ± 0.51 | 6.69 ± 0.82 | 3.29 | 4.06 ± 0.25 | 3.47 ± 0.064 | 4.43 ± 0.92
5 | MSDKKKRSMAGLPWIAAMAFFMQALDATILNTALPAIAHSLNRSPLAMQSAIISYTLTVAMLIPVSGWLADRFGTRRIFTLAVSLFTLGSLACALSNSLPQLVVFRVIQGIGGAMMMPVARLALLRAYPRNELLPVLNFVAMPGLVGPILGPVLGGVLVTWATWHWIFLINIPIGIAGLLYARKHMPNFTTARRRFDITGFLLFGLSLVLFSSGIELFGEKIVASWIALTVIVTSIGLLLLYILHARRTPNPLISLDLFKTRTFSIGIVGNIATRLGTGCVPFLMPLMLQVGFGYQAFIAGCMMAPTALGSIIAKSMVTQVLRRLGYRHTLVGITVIIGLMIAQFSLQSPAMAIWMLILPLFILGMAMSTQFTAMNTITLADLTDDNASSGNSVLAVTQQLSISLGVAVSAAVLRVYEGMEGTTTVEQFHYTFITMGIITVASAAMFMLLKTTDGNNLIKRQRKSKPNRVPSESE | 6.64 |  |  |  |  |  |  |  |  |  |  | 5.92
6 | MSDLHNESIFITGGGSGLGLALVERFIEEGAQVATLELSAAKVASLRQRFGEHILAVEGNVTCYADYQRAVDQILTRSGKLDCFIGNAGIWDHNASLVNTPAETLETGFHELFNVNVLGYLLGAKACAPALIASEGSMIFTLSNAAWYPGGGGPLYTASKHAATGLIRQLAYELAPKVRVNGVGPCGMASDLRGPQALGQSETSIMQSLTPEKIAAILPLQFFPQPADFTGPYVMLTSRRNNRALSGVMINADAGLAIRGIRHVAAGLDL [P0CI31] | 6.21 ± 0.63 |  |  |  |  |  |  |  |  |  |  | 3.6 ± 0.55
7 | MSDNDELQQIAHLRREYTKGGLRRRDLPADPLTLFERWLSQACEAKLADPTAMVVATVDEHGQPYQRIVLLKHYDEKGMVFYTNLGSRKAHQIENNPRVSLLFPWHTLERQVMVIGKAERLSTLEVMKYFHSRPRDSQIGAWVSKQSSRISARGILESKFLELKQKFQQGEVPLPSFWGGFRVSLEQIEFWQGGEHRLHDRFLYQRENDAWKIDRLAP [P0AFI7] | 4.89 ± 0.34 | 4.63 ± 0.17 | 4.39 ± 0.58 | 3.53 ± 0.6 | 5.55 ± 0.32 | 10.8 ± 1.7 | 4.14 ± 0.077 | 11.2 ± 0.29 | 4.2 ± 0.047 | 4.66 ± 0.076 | 8.66 ± 0.44 | 5.65 ± 0.12

Source: the supplement of paper PMC11246515
